Source: publication PMC4622058

Target: Human FcγRIIIa V158 (human)
Experiment: AlphaScreen or HTRF

anti-CD142 mAb variant 2h-AEA (IgG1 with IgG2 lower hinge, K326A/I332E/E333A) (antibody)
fold difference in binding against IgG1: < 2 fold

anti-CD142 mAb variant 2h-DAA (IgG1 with IgG2 lower hinge, S239D/K326A/E333A) (antibody)
fold difference in binding against IgG1: < 2 fold

anti-CD142 mAb with human IgG2 constant region (antibody)
fold decrease in binding against IgG1: > 30 fold
